Consider 1 substance from article PMC5435084.

In the experiment the target is Robo1-CC3 (UniProt Q9Y6N7). The experiment can be described thus: SPR.
Sequence of Robo1-CC3 (Q9Y6N7 26-1651): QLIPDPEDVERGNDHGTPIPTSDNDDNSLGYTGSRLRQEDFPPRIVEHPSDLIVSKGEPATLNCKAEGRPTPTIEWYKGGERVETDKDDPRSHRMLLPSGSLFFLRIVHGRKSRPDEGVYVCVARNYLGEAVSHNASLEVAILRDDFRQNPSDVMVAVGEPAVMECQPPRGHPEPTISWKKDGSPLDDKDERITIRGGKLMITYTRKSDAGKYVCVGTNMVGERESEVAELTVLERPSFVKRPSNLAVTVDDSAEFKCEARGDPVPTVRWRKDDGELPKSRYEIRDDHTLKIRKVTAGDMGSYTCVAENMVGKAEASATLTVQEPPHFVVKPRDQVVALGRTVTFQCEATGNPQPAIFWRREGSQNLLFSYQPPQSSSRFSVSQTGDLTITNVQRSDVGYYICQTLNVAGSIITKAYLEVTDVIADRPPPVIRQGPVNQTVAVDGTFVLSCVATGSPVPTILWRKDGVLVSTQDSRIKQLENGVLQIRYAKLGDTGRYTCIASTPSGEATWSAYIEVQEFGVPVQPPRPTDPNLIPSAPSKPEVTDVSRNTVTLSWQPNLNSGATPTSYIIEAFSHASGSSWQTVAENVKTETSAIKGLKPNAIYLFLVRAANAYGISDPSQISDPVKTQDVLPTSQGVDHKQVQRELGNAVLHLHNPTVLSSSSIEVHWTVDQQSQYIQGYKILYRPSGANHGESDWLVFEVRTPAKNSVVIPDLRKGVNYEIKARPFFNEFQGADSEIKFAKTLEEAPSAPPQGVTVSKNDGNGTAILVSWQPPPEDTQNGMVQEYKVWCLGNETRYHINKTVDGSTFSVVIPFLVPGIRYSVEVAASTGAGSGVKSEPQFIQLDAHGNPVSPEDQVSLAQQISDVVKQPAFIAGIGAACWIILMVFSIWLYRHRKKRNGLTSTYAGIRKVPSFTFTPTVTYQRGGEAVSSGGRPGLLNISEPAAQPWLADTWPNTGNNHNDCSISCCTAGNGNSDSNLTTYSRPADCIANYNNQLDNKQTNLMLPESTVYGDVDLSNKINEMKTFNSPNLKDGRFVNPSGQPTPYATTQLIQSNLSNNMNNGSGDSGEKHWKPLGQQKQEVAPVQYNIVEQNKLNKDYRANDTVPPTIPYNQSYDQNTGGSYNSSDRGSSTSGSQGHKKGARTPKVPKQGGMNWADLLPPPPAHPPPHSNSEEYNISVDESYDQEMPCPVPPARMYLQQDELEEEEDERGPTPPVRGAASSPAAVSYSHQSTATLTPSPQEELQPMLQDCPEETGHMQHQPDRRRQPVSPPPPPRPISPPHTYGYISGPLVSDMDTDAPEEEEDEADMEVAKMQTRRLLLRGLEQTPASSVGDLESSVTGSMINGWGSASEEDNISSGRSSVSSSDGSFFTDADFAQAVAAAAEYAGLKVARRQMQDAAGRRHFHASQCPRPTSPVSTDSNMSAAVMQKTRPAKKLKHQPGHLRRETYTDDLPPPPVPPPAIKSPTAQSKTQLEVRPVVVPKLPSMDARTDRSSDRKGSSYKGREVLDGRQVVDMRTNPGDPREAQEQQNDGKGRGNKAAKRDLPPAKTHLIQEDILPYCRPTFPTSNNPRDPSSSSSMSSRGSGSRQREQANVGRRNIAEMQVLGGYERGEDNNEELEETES

As a reminder, the Kd is a measure of binding affinity in units of concentration. Lower therefore signals tighter binding. “SRGAP2A:F-BARC hetero-dimer (from UniProt O75044 1-799; P0DJJ0 1-355) (complex)” showed a Kd of 5.6 µM.
